Assay [1] concerns the target T1, hisMRP-N (a.a. 48-721, the N-terminus of muramidase-released protein) (Streptococcus suis serotype 2 strain …, UniProt P32653 48-721, biotin (in the far-Western and on the BLI biosensors)).
T1 chain: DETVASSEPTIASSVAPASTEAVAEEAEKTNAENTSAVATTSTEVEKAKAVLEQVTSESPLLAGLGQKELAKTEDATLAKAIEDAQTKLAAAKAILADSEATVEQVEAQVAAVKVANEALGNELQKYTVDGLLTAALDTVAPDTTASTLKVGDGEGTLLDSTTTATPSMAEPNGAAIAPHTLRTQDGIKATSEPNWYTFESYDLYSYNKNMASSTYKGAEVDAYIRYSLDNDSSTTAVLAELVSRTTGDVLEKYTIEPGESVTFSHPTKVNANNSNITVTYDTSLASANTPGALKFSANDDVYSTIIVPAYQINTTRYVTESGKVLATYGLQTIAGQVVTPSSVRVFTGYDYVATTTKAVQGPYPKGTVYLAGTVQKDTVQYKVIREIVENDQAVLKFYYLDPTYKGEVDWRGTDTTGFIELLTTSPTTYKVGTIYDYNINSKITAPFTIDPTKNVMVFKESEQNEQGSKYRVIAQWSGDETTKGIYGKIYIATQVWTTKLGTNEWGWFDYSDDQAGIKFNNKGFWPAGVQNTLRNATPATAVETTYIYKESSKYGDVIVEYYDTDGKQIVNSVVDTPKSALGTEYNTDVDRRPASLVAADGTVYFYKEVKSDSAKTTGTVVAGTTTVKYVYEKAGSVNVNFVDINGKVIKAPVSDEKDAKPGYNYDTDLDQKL
Briefly: BLI.

Assay [2] addresses T2, human fibrinogen (human, UniProt P02671-2 20-644; P02675 31-491; P02679-2 27-437, biotin on hFg (which chain is not told) in the ELISA with immobilised MRP).
T2 construct: Fibrinogen Aα chain, human (63.5 kDa band); Fibrinogen Bβ chain, human (56 kDa band); Fibrinogen γ chain, human (47 kDa band); Three pairs of Aα, Bβ and γ chains; also called hFg; Fg; source: bought: Merck; copies: 2 + 2 + 2
T2 sequence (looked up) 1: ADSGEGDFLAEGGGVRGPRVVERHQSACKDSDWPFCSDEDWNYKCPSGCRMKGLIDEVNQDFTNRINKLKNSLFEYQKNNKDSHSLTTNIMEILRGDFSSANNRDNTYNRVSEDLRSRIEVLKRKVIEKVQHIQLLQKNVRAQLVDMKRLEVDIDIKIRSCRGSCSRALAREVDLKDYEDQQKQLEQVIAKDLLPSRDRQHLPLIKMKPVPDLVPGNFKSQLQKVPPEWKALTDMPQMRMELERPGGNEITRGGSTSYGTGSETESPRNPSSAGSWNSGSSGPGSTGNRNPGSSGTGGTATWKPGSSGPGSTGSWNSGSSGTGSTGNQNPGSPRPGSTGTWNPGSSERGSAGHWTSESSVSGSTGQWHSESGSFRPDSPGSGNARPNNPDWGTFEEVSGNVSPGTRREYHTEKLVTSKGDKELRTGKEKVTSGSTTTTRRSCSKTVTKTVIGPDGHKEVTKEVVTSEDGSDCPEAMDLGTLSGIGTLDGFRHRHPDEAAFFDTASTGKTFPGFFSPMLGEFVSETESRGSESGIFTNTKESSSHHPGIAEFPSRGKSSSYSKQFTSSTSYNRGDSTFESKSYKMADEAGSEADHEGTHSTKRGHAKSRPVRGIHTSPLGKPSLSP
T2 sequence (looked up) 2: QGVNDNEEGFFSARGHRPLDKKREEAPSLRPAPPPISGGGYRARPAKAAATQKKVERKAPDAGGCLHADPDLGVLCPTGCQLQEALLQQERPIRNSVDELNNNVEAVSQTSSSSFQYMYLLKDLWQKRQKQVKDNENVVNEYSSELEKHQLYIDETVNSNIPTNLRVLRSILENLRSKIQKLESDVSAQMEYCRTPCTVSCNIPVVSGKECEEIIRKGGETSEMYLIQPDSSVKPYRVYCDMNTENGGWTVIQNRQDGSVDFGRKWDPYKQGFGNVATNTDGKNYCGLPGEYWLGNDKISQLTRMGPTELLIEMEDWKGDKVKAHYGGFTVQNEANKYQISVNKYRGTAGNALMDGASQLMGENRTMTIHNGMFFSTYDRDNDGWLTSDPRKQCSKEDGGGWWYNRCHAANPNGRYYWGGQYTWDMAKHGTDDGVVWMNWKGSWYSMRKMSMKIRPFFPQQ
T2 sequence (looked up) 3: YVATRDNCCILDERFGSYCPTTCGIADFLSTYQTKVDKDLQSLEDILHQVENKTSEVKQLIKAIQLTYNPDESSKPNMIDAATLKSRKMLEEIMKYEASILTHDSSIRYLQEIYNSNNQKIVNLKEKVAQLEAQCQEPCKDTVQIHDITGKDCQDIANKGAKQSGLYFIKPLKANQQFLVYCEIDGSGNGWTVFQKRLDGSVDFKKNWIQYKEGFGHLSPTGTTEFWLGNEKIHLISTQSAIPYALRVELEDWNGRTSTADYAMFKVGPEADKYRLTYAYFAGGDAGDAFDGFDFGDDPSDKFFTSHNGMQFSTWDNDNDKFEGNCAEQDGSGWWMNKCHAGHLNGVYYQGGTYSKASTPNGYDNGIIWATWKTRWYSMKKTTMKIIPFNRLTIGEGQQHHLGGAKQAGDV
Briefly: BLI; biotinylated MRP-N proteins immobilised on streptavidin biosensors, hFg, Fg-D or Fg-E as analyte, PBST, 1:1 binding model. Particulars: both partners purified. (In general: Biolayer interferometry detects binding as a change in optical thickness at a sensor tip.)

B1: human fibrinogen (complex)
chain 1: ADSGEGDFLAEGGGVRGPRVVERHQSACKDSDWPFCSDEDWNYKCPSGCRMKGLIDEVNQDFTNRINKLKNSLFEYQKNNKDSHSLTTNIMEILRGDFSSANNRDNTYNRVSEDLRSRIEVLKRKVIEKVQHIQLLQKNVRAQLVDMKRLEVDIDIKIRSCRGSCSRALAREVDLKDYEDQQKQLEQVIAKDLLPSRDRQHLPLIKMKPVPDLVPGNFKSQLQKVPPEWKALTDMPQMRMELERPGGNEITRGGSTSYGTGSETESPRNPSSAGSWNSGSSGPGSTGNRNPGSSGTGGTATWKPGSSGPGSTGSWNSGSSGTGSTGNQNPGSPRPGSTGTWNPGSSERGSAGHWTSESSVSGSTGQWHSESGSFRPDSPGSGNARPNNPDWGTFEEVSGNVSPGTRREYHTEKLVTSKGDKELRTGKEKVTSGSTTTTRRSCSKTVTKTVIGPDGHKEVTKEVVTSEDGSDCPEAMDLGTLSGIGTLDGFRHRHPDEAAFFDTASTGKTFPGFFSPMLGEFVSETESRGSESGIFTNTKESSSHHPGIAEFPSRGKSSSYSKQFTSSTSYNRGDSTFESKSYKMADEAGSEADHEGTHSTKRGHAKSRPVRGIHTSPLGKPSLSP
chain 2: QGVNDNEEGFFSARGHRPLDKKREEAPSLRPAPPPISGGGYRARPAKAAATQKKVERKAPDAGGCLHADPDLGVLCPTGCQLQEALLQQERPIRNSVDELNNNVEAVSQTSSSSFQYMYLLKDLWQKRQKQVKDNENVVNEYSSELEKHQLYIDETVNSNIPTNLRVLRSILENLRSKIQKLESDVSAQMEYCRTPCTVSCNIPVVSGKECEEIIRKGGETSEMYLIQPDSSVKPYRVYCDMNTENGGWTVIQNRQDGSVDFGRKWDPYKQGFGNVATNTDGKNYCGLPGEYWLGNDKISQLTRMGPTELLIEMEDWKGDKVKAHYGGFTVQNEANKYQISVNKYRGTAGNALMDGASQLMGENRTMTIHNGMFFSTYDRDNDGWLTSDPRKQCSKEDGGGWWYNRCHAANPNGRYYWGGQYTWDMAKHGTDDGVVWMNWKGSWYSMRKMSMKIRPFFPQQ
chain 3: YVATRDNCCILDERFGSYCPTTCGIADFLSTYQTKVDKDLQSLEDILHQVENKTSEVKQLIKAIQLTYNPDESSKPNMIDAATLKSRKMLEEIMKYEASILTHDSSIRYLQEIYNSNNQKIVNLKEKVAQLEAQCQEPCKDTVQIHDITGKDCQDIANKGAKQSGLYFIKPLKANQQFLVYCEIDGSGNGWTVFQKRLDGSVDFKKNWIQYKEGFGHLSPTGTTEFWLGNEKIHLISTQSAIPYALRVELEDWNGRTSTADYAMFKVGPEADKYRLTYAYFAGGDAGDAFDGFDFGDDPSDKFFTSHNGMQFSTWDNDNDKFEGNCAEQDGSGWWMNKCHAGHLNGVYYQGGTYSKASTPNGYDNGIIWATWKTRWYSMKKTTMKIIPFNRLTIGEGQQHHLGGAKQAGDV
modifications: biotin on hFg (which chain is not told) in the ELISA with immobilised MRP
With B1, the koff (commonly the rate constant with which the complex falls apart) in assay [1] turned out to be 0.0989 s⁻¹.

B2: hisMRP-N (a.a. 48-721, the N-terminus of muramidase-released protein) (domain or fragment)
chain: DETVASSEPTIASSVAPASTEAVAEEAEKTNAENTSAVATTSTEVEKAKAVLEQVTSESPLLAGLGQKELAKTEDATLAKAIEDAQTKLAAAKAILADSEATVEQVEAQVAAVKVANEALGNELQKYTVDGLLTAALDTVAPDTTASTLKVGDGEGTLLDSTTTATPSMAEPNGAAIAPHTLRTQDGIKATSEPNWYTFESYDLYSYNKNMASSTYKGAEVDAYIRYSLDNDSSTTAVLAELVSRTTGDVLEKYTIEPGESVTFSHPTKVNANNSNITVTYDTSLASANTPGALKFSANDDVYSTIIVPAYQINTTRYVTESGKVLATYGLQTIAGQVVTPSSVRVFTGYDYVATTTKAVQGPYPKGTVYLAGTVQKDTVQYKVIREIVENDQAVLKFYYLDPTYKGEVDWRGTDTTGFIELLTTSPTTYKVGTIYDYNINSKITAPFTIDPTKNVMVFKESEQNEQGSKYRVIAQWSGDETTKGIYGKIYIATQVWTTKLGTNEWGWFDYSDDQAGIKFNNKGFWPAGVQNTLRNATPATAVETTYIYKESSKYGDVIVEYYDTDGKQIVNSVVDTPKSALGTEYNTDVDRRPASLVAADGTVYFYKEVKSDSAKTTGTVVAGTTTVKYVYEKAGSVNVNFVDINGKVIKAPVSDEKDAKPGYNYDTDLDQKL
modifications: biotin (in the far-Western and on the BLI biosensors)
notes: Muramidase-released protein (MRP) of Streptococcus suis serotype 2 strain 05ZYH33, gene SSU05_0753, residues 48-721; also called hisMRP-N_(48-721); source: cloned into pET-28a, expressed, purified by Ni-chelating chromatography
Turning to B2, in assay [2], the Kd (commonly the constant that tells how readily two partners part at equilibrium) worked out at 340 nM.

Values taken from publication PMC4882601, “Binding of Human Fibrinogen to MRP Enhances Streptococcus suis Survival in Host Blood in a αXβ2 Integrin-dependent Manner” (Scientific Reports, 2016).
